# Test results published in PMC5809250.
# Key:
# Assay in all cases: AUC
# [1] = target: Kogenate FS (recombinant full-length factor VIII, HC–LC heterodimer) (human) (UniProt P00451)
# [2] = target: Advate (recombinant full-length factor VIII, HC–LC heterodimer) (human) (UniProt P00451)
# [3] = target: Helixate FS (recombinant full-length factor VIII, HC–LC heterodimer) (human) (UniProt P00451)
substance,measurement,setting,value
"Kogenate FS (recombinant full-length factor VIII, HC–LC heterodimer) (from UniProt P00451 20-1332; P00451 1668-2351) (complex)",percent of the protein-related absorbance signal in the 10.5–10.6 S peak,[1],5%
same,stoichiometry N,[1],2
"Advate (recombinant full-length factor VIII, HC–LC heterodimer) (from UniProt P00451 20-1332; P00451 1668-2351) (complex)",percent of the A280 signal in the 12–20 S distribution (Lot 2),[2],3.8%
same,percent of the protein-related absorbance signal in the 10.5–10.6 S peak,[2],7%
same,stoichiometry N,[2],2
"Helixate FS (recombinant full-length factor VIII, HC–LC heterodimer) (from UniProt P00451 20-1332; P00451 1668-2351) (complex)",stoichiometry N,[3],2
